What was measured:
[1] = test system: MS2 coat protein; assay: apparent KD of MS2 coat protein, switch OFF state (with FMN for OFF switches, without FMN for ON switches); designed switch direction (-1 OFF switch, 1 ON switch): 1; higher = weaker reporter binding; conditions: FMN input: 0 or 200 uM; Eterna round: R93 (includes R88 designs)
Procedure, shortened: (§1)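 The buffer was 100 mM Tris-HCl pH 7.5 with 80 mM KCl and 4 mM MgCl2, used without or with constant ligand. In it, RNA switches transcribed on-chip from Illumina sequencing clusters were titrated with SNAP-549-labelled MS2 coat protein in twofold steps from 0.7 or 1.5 nM to 3 µM. Apparent KD for each design is the median of its normalised cluster binding-curve fits.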

[2] = test system: MS2 coat protein; assay: apparent KD of MS2 coat protein, switch ON state; designed switch direction (-1 OFF switch, 1 ON switch): 1; higher = weaker reporter binding; conditions: FMN input: 0 or 200 uM; Eterna round: R93 (includes R88 designs)
Procedure, shortened: as §1

| Sequence | apparent KD of MS2 coat protein [1] | apparent KD of MS2 coat protein [2] |
| --- | --- | --- |
| CGAAGACAUGAGGAUCACCCAUGUGGGAUUAUGGGAGGAUAUACAAAGACGAGAGUCAGAGUAGAAGGCCUAGGAA [salish99-ss1-124(!)] | 38.5 nM | 23.3 nM |
| ACUAGGAAGAGAGAGGAUAUCCAAAGGAAAACAUGAGGAUCACCCAUGUAAAAGGUAGGAAAUUGGGAGAAGGCUCAAGAGAGAG [salish99-ss2-085] | 24.4 nM | 22.9 nM |
| AGAAAUAAAGGAGAGGAUAUCCAAAAGAAAACAUGAGGAUCACCCAUGUAAAAGAAAAUAAAGUGGGAGAAGGCUUCAAAUAAGA [Starry modified V5] | 45.2 nM | 18.7 nM |
| CAGAGGAAGAGAGAGGAUAUCCAAAGGAAAACAUGAGGAUCACCCAUGUAAAAGGUAGGAAAUUGGGAGAAGGCUCAAGAGAGAG [salish99-ss2-064] | 34.6 nM | 27.4 nM |
| AAGAAACAUGAGGAUCACCCAUGUAAGAUAAACACAGGAUAUGCGAAAAUAAAUAAAUAAGCAGAAGGGUGAAAAG [Mat - Same State 1 - Tesla mod - 75] | 32.4 nM | 19.9 nM |
| AACAAUCUAUCUGAGGAUAUGUGUCGAAAGACAUGAGGAUCACCCAUGUAAAAACAUGGAAAAUCACAGAAGGCAGAUAGAUUGA [SS2: 1145] | 1790 nM | 127 nM |
| AAAGAAAAACUAGAGGAUAUUUGAAUGGUAACAUGAGGAUCACCCAUGUGAAGAAAGGAACAUGAGGAGAAGGCUAGAAGAAAAA [JL Nando mod 16] | 74.7 nM | 17.5 nM |
| AAAACACAUGAGGAUCACCCAUGUAAAAACUUGGGAGGAUAUGCUUGGAAAACAUGCUAUGCAGAAGGCUCUAGUG [SS1 - 13] | 123 nM | 49.9 nM |
| GGGAGGAAGAGAGAGGAUAUCCAAAGGAAAACAUGAGGAUCACCCAUGUAAAAGGUAGGAAAUUGGGAGAAGGCUCAAAAGAAGG [salish99-ss2-045] | 36.5 nM | 27.6 nM |
| AGAAGACAUGAGGAUCACCCAUGUGCACGUGGAGGAGGAUAUGCUAGUAGAAGAUAGAAUGCAGAAGGCCUAAGAA [Mat - Mod] | 38.5 nM | 51.9 nM |
| GAAAUAAAAAGACAGGAUAUCCAAAAGAAAACAUGAGGAUCACCCAUGUAAAGAAAAUAAAAAUGGGAGAAGGGUCAAAUAAAAG [Mat - Same State 2 - JL mod - D54] | 32.8 nM | 24 nM |
| AGAAAUAAAAGAGAGGAUAUCCAAAAAGGGACAUGAGGAUCACCCAUGUAAAAGAAAAUAAAAUGGGAGAAGGCUCAAAAUAAAG [80%, More Helter Skelter 2] | 120 nM | 97.3 nM |
| AAAUAAAUGACUCAGGAUAUGUCAGAGAAAACAUGAGGAUCACCCAUGUAAUAAUAACAUGUGUGACAGAAGGGAGUCAAUAAAU [LROPPY Same State 2 - v01_deltaG=.6] | 15 nM | 27.2 nM |
| AGCGAACAUGAGGAUCACCCAUGUGAAAAACAUAGAGGAUAUGUCGCAUGCGUGUAAAAGACAGAAGGCUAUCGCG [Mat - Mod of Nando] | 52.1 nM | 24 nM |
| AACAAUCUAUCUGAGGAUAUCAAGUCAAAGACAUGAGGAUCACCCAUGUGCAGGAAAACUGCAUUUGAGAAGGCAGAUAGAUUGA [SS2: 1108] | 12.1 nM | 10.3 nM |
| AGAAGACAUGAGGAUCACCCAUGUGGGAUUAUGGGAGGAUAUACAAAGACGAGAGUCAGAGUAGAAGGCCUAGGAU [salish99-ss1-113(!)] | 70.8 nM | 24.7 nM |

| Sequence | apparent KD of MS2 coat protein [1] | apparent KD of MS2 coat protein [2] |
| --- | --- | --- |
| AGAAAACAUGAGGAUCACCCAUGUAGAAACAUGGGAGGAUAUACAAAGACGAAAGUCAAAGUAGAAGGCCUAAAAA [Mat - Same State 1 - Mod - D163] | 140 nM | 75.7 nM |
| AUAAAACAUGAGGAUCACCCAUGUAGACACAUGGGAGGAUAUACUAGAUCGAAAGAUCUAGUAGAAGGCCUUUGUA [Mat - Same State 1 - JL mod - D93] | 749 nM | 131 nM |
| AAAAAACAUGAGGAUCACCCAUGUGAAAAAUUCGCAGGAUAUCCCUUUUUUAAAUGGGAGGGAGAAGGGUGAAAAA [Nob's Hobby 16 - Jieux - Same State 1] | 112 nM | 34.8 nM |
| AUAAAUAAAAGCAAGGAUAUCCAAAAGAAAACAUGAGGAUCACCCAUGUAAAAGAAAAUAAAAUGGGAGAAGGUGCAAAAUAAAU [viburnum 8] | 27.5 nM | 14.8 nM |
| GUAGAACAUGAGGAUCACCCAUGUGAAGACGCAUGAGGAUAUAUACGUAAAUAGCAUACGAUAGAAGGCAUGAUAA [JR_SS001_Sub1703] | 53.5 nM | 25.5 nM |
| AAAAAACAUGAGGAUCACCCAUGUCUUCGGACAUGAGGAUAUGUACAGACUUCGGUCUGUACAGAAGGCAUAAAAA [SS1 - 1010] | 12.6 nM | 221 nM |
| GUAUGCAUGAGGUAGGAUAUCCAAAACAAAACAUGAGGAUCACCCAUGUAAACAAACAACAAAUGGGAGAAGGACCACAUGUAUAC [Ex6 sub 5] | 27.1 nM | 13.1 nM |
| AAAACACAUGAGGAUCACCCAUGUAGAAAUACGGGAGGAUAUGCUAAAACGAAAGACAAUGUAGAAGGCCUAAAAG [saturn 10] | 59.6 nM | 37.7 nM |
| AAAUAAAUGACUGAGGAUAUAUCGAUGAAAACAUGAGGAUCACCCAUGUGAUAAUAAAAAGGGUGAUAGAAGGUAGUCAACAAAC [Mod 11 of Pariah 4 by Hyphema in Round 1] | 211 nM | 52.1 nM |
| GCUCCAGCUAGCAAGGAUAUGUAGGAUGCUACAUGAGGAUCACCCAUGUGCUGAAAUAAGUCCCGGCAGAAGGUGUGACUGGAGA [Laedtear] | 26.9 nM | 16.8 nM |
| AACCAACAUGAGGAUCACCCAUGUCAACCCAAGCGAGGAUAUCGGAGAAUAACAAUGGGACGAGAAGGCGCGACCU [ss1-2] | 36.9 nM | 34.4 nM |
| CGAAGACAUGAGGAUCACCCAUGUGGGAAUAUGGGAGGAUAUACAAAGACGAGAGUCAGAGUAGAAGGCCUAGGAC [salish99-ss1-108] | 75.5 nM | 26.5 nM |
| AAAAAAAAAACUGAGGAUAUCAGGGAUGGUACAUGAGGAUCACCCAUGUUGGCGGGCGAAGAAACUGAGAAGGCAGAAAAAAAAAA [JR_SameState2_Sub4] | 79.6 nM | 40.4 nM |
| AUUAAAUAUAGUUAGGAUAUAAUAUGUAAGACAUGAGGAUCACCCAUGUCCUAAGAAUAGUUAAAUUAGAAGGAACAGUGAAUAU [JR_SS002_Sub420] | 24.5 nM | 24.1 nM |
| GGGAGACAUGAGGAUCACCCAUGUGAGAAGAGGCGAGGAUAUCGAAAGAAAGAAGAGAAACGAGAAGGCGCGAGGA [salish99-SS1-051] | 44.7 nM | 37.7 nM |
| AGAAAUAAAGGAGAGGAUAUUCAAAAAGGGACAUGAGGAUCACCCAUGUAAAAGAAAAUAAAAUGGGAGAAGGCUCUAAAUAAAG [80%, More Helter Skelter 2] | 47.2 nM | 49.6 nM |

— the supplement of paper PMC9170038
